Measured values taken from patent EP1438388B1.

Assays:
[1] = target: putative IBC-1 receptor on G361 melanoma cells, lower affinity binding site (human); test: Scatchard analysis of AP-IBC-1 binding to G361 melanoma cells; lower affinity slope
[2] = target: putative IBC-1 receptor on G361 melanoma cells, moderately high affinity binding site (human); test: Scatchard analysis of AP-IBC-1 binding to G361 melanoma cells; moderately high affinity slope
[3] = target: putative IBC-1 receptor on G361 melanoma cells, lower affinity binding site (human); test: Scatchard analysis of AP-IBC-1 binding to G361 melanoma cells, bound AP activity; lower affinity slope
[4] = target: putative IBC-1 receptor on G361 melanoma cells, moderately high affinity binding site (human); test: Scatchard analysis of AP-IBC-1 binding to G361 melanoma cells, bound AP activity; moderately high affinity slope

Substance: alkaline phosphatase-IBC-1 fusion protein (from UniProt P81605 20-110) (ligand)
- binding sites/cell (binding sites/cell) [1]: 350000
- binding sites/cell (binding sites/cell) [2]: 17000
- Kd [3]: 0.36 µM
- Kd [4]: 0.0375 µM
